Source: patent publication US20230340112A1

Key:
[1] = target: mDC cell surface SIRPα (human) (UniProt P78324); assay: FACS binding; Donor #296; isotype control, flat curve
[2] = target: mDC cell surface SIRPα (human) (UniProt P78324); assay: FACS binding; Donor #298; isotype control, flat curve
[3] = target: cell-surface SIRPα (mDC) (human) (UniProt P78324); assay: FACS blocking of CD47/SIRPα; Donor #298; isotype control, flat curve
[4] = target: cell-surface SIRPα (mDC) (human) (UniProt P78324); assay: FACS blocking of CD47/SIRPα; Donor #296; isotype control, flat curve
[5] = target: human SIRPα expressed on the surface of human monocyte-derived dendritic cells (human) (UniProt P78324); assay: flow cytometry on human monocyte-derived dendritic cells
Sequence of human SIRPα expressed on the surface of human monocyte-derived dendritic cells (human) (P78324 31-504): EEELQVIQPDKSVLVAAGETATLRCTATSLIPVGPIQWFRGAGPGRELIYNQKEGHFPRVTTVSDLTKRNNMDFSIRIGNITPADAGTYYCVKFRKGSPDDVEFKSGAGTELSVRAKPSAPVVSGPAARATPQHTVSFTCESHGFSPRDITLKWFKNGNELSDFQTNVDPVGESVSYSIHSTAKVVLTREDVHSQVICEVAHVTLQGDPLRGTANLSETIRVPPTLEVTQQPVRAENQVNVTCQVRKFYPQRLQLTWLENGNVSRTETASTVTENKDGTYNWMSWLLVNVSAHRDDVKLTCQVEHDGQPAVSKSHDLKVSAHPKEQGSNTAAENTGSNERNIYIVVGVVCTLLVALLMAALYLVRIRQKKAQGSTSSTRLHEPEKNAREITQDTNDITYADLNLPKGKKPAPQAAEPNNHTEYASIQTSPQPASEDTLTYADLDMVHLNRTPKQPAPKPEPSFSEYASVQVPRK

Sequence of cell-surface SIRPα (mDC) (human) (P78324 31-504): as above
Sequence of mDC cell surface SIRPα (human) (P78324 31-504): as above

Row | Substance | EC50 [1] [nM] | EC50 [2] [nM] | IC50 [3] [nM] | IC50 [4] [nM] | Kd [5] [nM]
1 | IgG4 isotype | 38.6 | 0.025 | 0.0177 | 0.424 | –
2 | IgG4 isotype (antibody) | – | – | – | – | 0.0021
